Measured values taken from patent US12356911B2, “Group of UDP-glycosyltransferase for catalyzing carbohydrate chain elongation and application thereof” (GSYNBIOT (SHANGHAI) CO., LTD, priority 2017, dated 2025).
Where a chain is given by its changes, count along the chain named.

B1: PNUGT29-14: Panax notoginseng glycosyltransferase, 447 amino acids, SEQ ID NO: 57 (protein)
chain: MYIEKGRISIVMLPFLAHGHISPFFELAKHLSKRNCNIFLCSTPINLSSIKNRVSDKDSSASIKLVELHLPSSPDLPPQYHTTNGLPSHLMVPLKNAFETVGPTFSEILKTLDPDLLIYDFNPSWAPEIALSHNIPAVYFLTSAAATSSVALRALKNPGEKYPFPDFYDNSNITPEPPSADKMKLFHDFVACFKRSCDIILIKSFRELEGKYIDLLSTLSKKTLVPVGPLVQDPLGHDEDPKTGHLINWLDKRAESTVVFVCFGSEYFPSNEELEEVAIGLEISMVNFILAVRFLEGEKKGVLPEGFVQRVGDRGLVVEGWAPQARILGHSSTGGFVSHCGWSSIMESVKFGVPVIAMARHLDQPLNAKLAAEVGVGMEVVRDENGKYKREAIAEVIRKVVMEKNGEVIRRKARELSEKMKETGEQEIGRAVEELVQICKMKKDAQY
modifications: Panax notoginseng
B2: PNUGT29-3: Panax notoginseng glycosyltransferase, 447 amino acids, SEQ ID NO: 43 (protein)
chain: B1 chain with Y2D
B3: PNUGT29-6: Panax notoginseng glycosyltransferase, 447 amino acids, SEQ ID NO: 49 (protein)
chain: B1 chain with Y2D, D56G, K389T, E418D, T423K
modifications: Panax notoginseng
B4: PNUGT29-1: Panax notoginseng glycosyltransferase, 447 amino acids, SEQ ID NO: 39 (protein)
chain: B1 chain with Y2D, N52S, K389T, E418D, T423K
modifications: Panax notoginseng
B5: PNUGT29-4: Panax notoginseng glycosyltransferase, 447 amino acids, SEQ ID NO: 45 (protein)
chain: B1 chain with Y2D, K389T, E418D, T423K
modifications: Panax notoginseng
B6: PNUGT29-15: Panax notoginseng glycosyltransferase, 447 amino acids, SEQ ID NO: 59 (protein)
chain: B1 chain with Y2D, P234H, K389T, E418D, T423K
modifications: Panax notoginseng
B7: PNUGT29-7: Panax notoginseng glycosyltransferase, 447 amino acids, SEQ ID NO: 51 (protein)
chain: B1 chain with Y2D, L117F, K389T, E418D, T423K
modifications: Panax notoginseng
B8: PNUGT29-5: Panax notoginseng glycosyltransferase, 447 amino acids, SEQ ID NO: 47 (protein)
chain: B1 chain with Y2D, K389T, E418D, T423K, K442M
modifications: Panax notoginseng
B9: GT29-46: Ginseng UDP-glycosyltransferase, 442 amino acids, SEQ ID NO.: 100 (protein)
chain: MDNQEGRISIALLPFLAHGHISPFFELAKQLAKRNCNVFLCSTPINLSSIKNKDSSASIKLVELHLPSSPDLPPHYHTTNGLPSHLMVPLINAFETAGPTFSEILKTLNPDLLIYDFNPSWAPEIASSHNIPAVYFLTTAAASSSIGLHAFKNPGEKYPFPDFYDNSNNTPEPPSADNMKLLHDFIACFERSCDIILIKSFIELEGKYIDLLSTLSDKTLVPVGPLVQDPMGHNEDPKTEQIINWLDKRAESTVVFVYFGSEYFLSNEELEEVAIGLEISMVNFIWAVRLIEGEKKGVLPEGFVQRVGDRGLVVEGWAPQARILGHSSTGGFVSHCGWSSIAESMKFGVPVIAMARHLDQPLNGKLAAEVGVGMEVVRDENGKYKREGIAEVIRKVVVEKSGEVMRRKARELSEKMKEKGEEEIDRAVEELVQICKKKKDAQ
modifications: primer
B10: PNUGT29-2: Panax notoginseng glycosyltransferase, 442 amino acids, SEQ ID NO: 41 (protein)
chain: MDNQKGRISIALLPFLAHGHISPFFELAKQLAKRNCNVFLCSTPINLSSIKNKDSSASVKLVELHLPSSPDLPPHYHTTNGLPSHLMVPLRNAFETVGPTFSEILKTLNPDLLIYDFNPSWAPEIASSHNIPAVYFLTTAAASSSIGLHAFKNPGEKYPFPDFYDNSNITPEPPSADNMKLLHDFIACFERSCDIILIKSFRELEGKYIDLLSTLSDKTLVPVGPLVQDPMGHNEDPKTEQIINWLDKRAESTVVFVCFGSEYFLSNEELEEVAIGLEISMVNFIWAVRLIEGEKKGVLPEGFVQRVGDRGLVVEGWAPQARILGHSSTGGFVSHCGWSSIAESMRFGVPVIAMARHLDQPLNAKLAAEVGVGMEVVRDDNGKYKREGIAEVIRKVVVEKSGEVIRRKARELSEKMKEKGEQEIDRAVEELVQICKKKKDAQ
modifications: Panax notoginseng
B11: GT29-45: Ginseng UDP-glycosyltransferase, 448 amino acids, SEQ ID NO.: 98 (protein)
chain: MDIEKGRISIVMLPFLAHGHISPFFELAKHLSKRNCNIFLCSTPINLSSIKNRVSDKDSSASIKLVELHLPSSPDLPPHYHTTNGLPSHLMVPLRNAFETAAPTFSEILKTLNPDLLIYDFNPSWAPEIASSHNIPAVYFLTSAAATSSMGLHAFKNSGEKYPFPDFYDNSNITPEPPSADKMKLFHDFVACFKRSCDIILIKSFRELEGKYIDFLSTLSKKTLVPVGPLVQDPMGHDEDPKTGHLINWLDKRAESTVVFVCFGSEYFPSNEELEELAIGLEISMVSFILAVRFPEGEKKGILPEGFVQRVGDRGLVVEGWAPQARILGHSSTGGFVSHCGWSSIMESVKFGVPVIAMARHLDQPLNAKLAAEVGVGMEVMRDENGKYKREAIAEVIRKVVMEKNGEVMRRKARELSEKMKVKGEQEIGRAVEELVQICKKKKQHAQY
modifications: Panax ginseng

Assay: In vitro transglycosylation at C-20, CK as glycosyl acceptor, UDP-glucose as donor
Format: biochemical
Settings: crude enzyme (E. coli lysate supernatant); TLC/HPLC, FIG. 2, 3, 12, 16
Description: (§1) Cell lysate of recombinant E. coli with empty vector pET28a was used as a control.
As shown in FIG. 16: Protopanaxadiol Ginsenoside CK is used as a glycosyl acceptor, and UDP-glucose is used as a glycosyl donor.

Molecule	product formation from CK and UDP-glucose (Gypenoside LXXV)
B1	can catalyze the extension of a glucosyl at the C-20 glycosyl to generate Gypenoside LXXV
B2	can catalyze the extension of a glucosyl at the C-20 glycosyl to generate Gypenoside LXXV
B3	can catalyze the extension of a glucosyl at the C-20 glycosyl to generate Gypenoside LXXV
B4	can catalyze the extension of a glucosyl at the C-20 glycosyl to generate Gypenoside LXXV
B5	can catalyze the extension of a glucosyl at the C-20 glycosyl to generate Gypenoside LXXV
B6	can catalyze the extension of a glucosyl at the C-20 glycosyl to generate Gypenoside LXXV
B7	can catalyze the extension of a glucosyl at the C-20 glycosyl to generate Gypenoside LXXV
B8	can catalyze the extension of a glucosyl at the C-20 glycosyl to generate Gypenoside LXXV
B9	can catalyze the C-20 glycosyl of CK to extend a glucosyl to produce Gypenoside LXXV
B10	can catalyze the extension of a glucosyl at the C-20 glycosyl to generate Gypenoside LXXV
B11	can catalyze the C-20 glycosyl of CK to extend a glucosyl to produce Gypenoside LXXV

Assay: In vitro transglycosylation at C-3, Rh2 as glycosyl acceptor, UDP-glucose as donor
Format: biochemical
Settings: crude enzyme (E. coli lysate supernatant); TLC, FIG. 13, FIG. 15
Description: as §1

Molecule	product formation from Rh2 and UDP-glucose (Rg3)
B1	can catalyze the extension of a glucosyl at the C-3 glycosyl of Rh2 to generate Rg3
B2	can catalyze the extension of a glucosyl at the C-3 glycosyl of Rh2 to generate Rg3
B3	can catalyze the extension of a glucosyl at the C-3 glycosyl of Rh2 to generate Rg3
B4	can catalyze the extension of a glucosyl at the C-3 glycosyl of Rh2 to generate Rg3
B5	can catalyze the extension of a glucosyl at the C-3 glycosyl of Rh2 to generate Rg3
B6	can catalyze the extension of a glucosyl at the C-3 glycosyl of Rh2 to generate Rg3
B7	can catalyze the extension of a glucosyl at the C-3 glycosyl of Rh2 to generate Rg3
B8	can catalyze the extension of a glucosyl at the C-3 glycosyl of Rh2 to generate Rg3
B9	can all catalyze the extension of a glucosyl at the C-3 glycosyl of Rh2 to generate Rg3
B10	can catalyze the extension of a glucosyl at the C-3 glycosyl of Rh2 to generate Rg3
B11	can all catalyze the extension of a glucosyl at the C-3 glycosyl of Rh2 to generate Rg3

Assay: In vitro transglycosylation at C-20, Rd as glycosyl acceptor, UDP-glucose as donor
Format: biochemical
Settings: crude enzyme (E. coli lysate supernatant); TLC/HPLC, FIG. 2, 3, 11
Description: as §1

Molecule	product formation from Rd and UDP-glucose (Rb1)
B1	can catalyze the extension of a glucosyl at the C-20 glycosyl of Rd to generate Rb1
B2	can catalyze the extension of a glucosyl at the C-20 glycosyl of Rd to generate Rb1
B3	can catalyze the extension of a glucosyl at the C-20 glycosyl of Rd to generate Rb1
B4	can catalyze the extension of a glucosyl at the C-20 glycosyl of Rd to generate Rb1
B5	can catalyze the extension of a glucosyl at the C-20 glycosyl of Rd to generate Rb1
B6	can catalyze the extension of a glucosyl at the C-20 glycosyl of Rd to generate Rb1
B7	can catalyze the extension of a glucosyl at the C-20 glycosyl of Rd to generate Rb1
B8	can catalyze the extension of a glucosyl at the C-20 glycosyl of Rd to generate Rb1
B10	can catalyze the extension of a glucosyl at the C-20 glycosyl of Rd to generate Rb1
